Patent US20110046887A1, “METHOD FOR ASSESSING PATHWAY PRODUCT LEVELS” (priority 2006, published 2011)

How the values were obtained:
[1] = injected GnRH, i.v. bolus; cited from earlier work
[2] = Bayesian deconvolution of 24-hr pituitary-hormone concentration profiles (secretion and elimination parameters); format: in vivo, human; settings: 24-hr 10-min sampled profile, ACTH, LH young, GH person
Description: The experimentalist requires an automated procedure by which to simultaneously detect pulse times and estimate secretion/kinetic features. […] In each case, discrete blood sampling (i.e., the withdrawal lasting 5-10 sec) was performed every 10 min for 24 hr. [Integrative sampling (continuous withdrawal) yields a time-integrated or flattened version of the impulse, thereby underestimating absolute peak values and overestimating interpulse valleys.] If the set (Y1, Y2, . . . , Yn) denotes observed hormone concentrations, n would be 145 for 10-min sampling over 24 hr. […] One would like to find values (a,b) so that, for a specified probability, e.g., 0.95, one can make the following probability statement:
Assuming that pulse-onset times are given by ℑm={T^1, T^2 . . . , T^m}, Keenan and Veldhuis give a model to estimate secretory dynamics conditional on pulse times (Keenan & Veldhuis, 1998; Keenan et al., 2000; Keenan et al., 1998). The primary components are basal and pulsatile secretion, a flexible secretory-burst shape, random effects on burst mass, biexponential elimination kinetics and combined experimental uncertainty in sample collection, processing and assay. We suppose that M, the amount of hormone secreted in the j^th burst (mass per unit distribution volume), is the sum of a finite amount of minimally available stores, a linear function of hormone accumulation over the preceding interpulse interval, and a random effect allowing for biological variability in individual burst mass:
In the present Bayesian approach, an a priori (prior) probability distribution is placed on the parameter space: Θ×ℑ, where ℑ={ℑN, ℑN-1, . . . , ℑp} in Eq. [16] and Θ denotes the parameter set in Eq. [14]. The prior density on Θ×ℑ is assumed to be a product: π×λ, with a uniform prior on Θ, π(θ)∝ to a Constant. The prior on ℑ is the Akaike Information Criterion (AIC) penalty for the number of pulse times m, λ(ℑm)∝exp(−m). […] Measured data Y=(Y1, Y2, . . . , Yn)′ are then incorporated via a likelihood function (Eq. [15]), resulting in the a posteriori (posterior) probability distribution on Θ×ℑ:
The algorithm of the present paper utilizes a mathematically justified procedure for simulating from the joint (Θ×ℑ) posterior distribution (Eq. [18]). The basic idea is that, for a given hormone concentration profile, one generates an array of (e.g. 100) simulations from the posterior distribution, which allows one then to make probabilistic statements about the parameters of pulse times, secretion and elimination.
total basal secretion as: n×β0, and total pulsatile as the difference. Repeated sampling of (θ,ℑm), and calculation of total pulsatile secretion (for each), produces a probability histogram approximating the posterior distribution for total pulsatile secretion, given an observed concentration profile. […] Specifically, in reference to Eq. [9]
Histograms are based on 100 simulations from the joint posterior distribution.

[3] = system: Pulsatile LH secretion; assay: Expected pulsatile LH secretion in KTCZ/DEX paradigm with Te addback; format: in vivo, human
Description: Volunteers (Forty (40) healthy men ages 18-80 years) arrived at a testing facility by 1730 hours and stayed two nights. At 1800-2000 hours, two i.v. catheters were placed in (contralateral) antecubital veins to allow concomitant saline or Te infusion and blood sampling. […] This regimen can reduce the concentration of total Te from 530±61 to 85±13 ng/dL overnight. […] Visits were greater than or equal to two weeks apart. The order of the four visits was prospectively randomized, and interventions were double-blind.
To enforce pulsatile negative feedback, 12 consecutive pulses of Te or saline was given i.v. on top of the basal infusion. […] To monitor LH and Te concentrations, blood samples (1.25 mL) were withdrawn every 10 min for 16 hours beginning at 0800 hours, FIG. 7.
Te was infused at a constant rate of 1.0 mg/24 hours from midnight (MN) until MN. There were 12 superimposed pulses each at a session-defined dose of zero (saline), 167, 333 or 500 μg delivered over 6 min every two hours from MN to 2200 hours. Resultant total (basal+pulsatile) Te infusion rates were equivalent to 1, 3, 5 and 7 mg/24 hours, thus spanning sub-, mid- and high-physiological Te production rates in healthy young men (normal interquartile range 4-6 mg/day) (Veldhuis et al., Physiological Basis of Aging and Geriatrics, 3rd edition, 213-231, Boca Raton, CRC Press (2003); Veldhuis, Reproductive Endocrinology, 4th edition, 622-631, Philadelphia, W.B. Saunders Co., (1999)). Crystalline testosterone was dissolved in 100% ethanol, diluted to less than 0.3% ethanol in normal saline, and microfiltered for i.v. infusion after sterility and pyrogen testing.
Estimates based on data described elsewhere (Zwart et al., J. Clin. Endocrinol. Metab. 82:2062-2069 (1997)) indicate that statistical power can exceed 90% to detect an effect of age that explains 33% or more of the variability in Te feedback sensitivity if 40 subjects are studied. The predicted slope±SD of feedback sensitivity regressed on age is (×10^−3) 1.5±0.25. […] Because an a priori postulate is that age reduces feedback sensitivity, a test of significance can be one-tailed; and because both sensitivity and efficacy can be examined, the experiment-wise critical value is P≦0.025.

[4] = system: total Te; settings: overnight after oral KTCZ 1000 mg with DEX 0.75 mg at midnight; reduced from 530±61; cited from earlier work
[5] = oral dosing in healthy men; cited from earlier work
[6] = 0.05 quantile of posterior distribution
[7] = 0.25 quantile of posterior distribution
[8] = 0.50 quantile of posterior distribution
[9] = 0.75 quantile of posterior distribution

## gonadotropin-releasing hormone [GnRH]
[1]
  first-phase half-life: 3 to 7 min
  second-phase half-life: 35 to 50 min

## growth hormone [GH]
[2]; [6]
  Slow Half-Life: 28 min
[2]; [7]
  Slow Half-Life: 31 min
[2]; [8]
  Slow Half-Life: 31 min
[2]; [9]
  Slow Half-Life: 31 min

## C[C@]12CC[C@H]3[C@@H](CCC4=CC(=O)CC[C@@]43C)[C@@H]1CC[C@@H]2O [Te, testosterone]
[3]; oldest subjects, 1 mg Te addback, free Te decrement 15 ng/dL
  Pulsatile LH secretion: 2.0 IU/L/min
[3]; oldest subjects, 7 mg Te addback (start of expected increase)
  Pulsatile LH secretion: 0.65 IU/L/min
[3]; youngest subjects, 1 mg Te addback, free Te decrement 17 ng/dL
  Pulsatile LH secretion: 3.5 IU/L/min
[3]; youngest subjects, 7 mg Te addback (start of expected increase)
  Pulsatile LH secretion: 0.50 IU/L/min

## adrenocorticotropin hormone (SYSMEHFRWGKPVGKKRRPVKVYPNGAEDESAEAFPLEF; Corticotropin; UniProt P01189 138-176, looked up) [ACTH, endogenous pituitary hormone measured in blood of a person]
[2]; [6]
  Slow Half-Life: 9 min
[2]; [7]
  Slow Half-Life: 11 min
[2]; [8]
  Slow Half-Life: 15 min
[2]; [9]
  Slow Half-Life: 19 min
[2]; 0.95 quantile of posterior distribution
  Slow Half-Life: 25 min

## CC(=O)N1CCN(c2ccc(OCC3COC(Cn4ccnc4)(c4ccc(Cl)cc4Cl)O3)cc2)CC1 (centres unmarked) [KTCZ, ketoconazole]
[4]
  concentration of total Te: 85 ± 13 ng/dL
[5]
  half-life: six
